The target of the experiment is SA2-SCC1 complex (SA2 80-1060 in complex with SCC1 281-420) (UniProt Q8N3U4). The experiment in a line: ITC. (ITC needs no label: the signal is the heat of the interaction.)
Sequence of SA2-SCC1 complex (SA2 80-1060 in complex with SCC1 281-420) (Q8N3U4 80-1060, chain 1 of 2): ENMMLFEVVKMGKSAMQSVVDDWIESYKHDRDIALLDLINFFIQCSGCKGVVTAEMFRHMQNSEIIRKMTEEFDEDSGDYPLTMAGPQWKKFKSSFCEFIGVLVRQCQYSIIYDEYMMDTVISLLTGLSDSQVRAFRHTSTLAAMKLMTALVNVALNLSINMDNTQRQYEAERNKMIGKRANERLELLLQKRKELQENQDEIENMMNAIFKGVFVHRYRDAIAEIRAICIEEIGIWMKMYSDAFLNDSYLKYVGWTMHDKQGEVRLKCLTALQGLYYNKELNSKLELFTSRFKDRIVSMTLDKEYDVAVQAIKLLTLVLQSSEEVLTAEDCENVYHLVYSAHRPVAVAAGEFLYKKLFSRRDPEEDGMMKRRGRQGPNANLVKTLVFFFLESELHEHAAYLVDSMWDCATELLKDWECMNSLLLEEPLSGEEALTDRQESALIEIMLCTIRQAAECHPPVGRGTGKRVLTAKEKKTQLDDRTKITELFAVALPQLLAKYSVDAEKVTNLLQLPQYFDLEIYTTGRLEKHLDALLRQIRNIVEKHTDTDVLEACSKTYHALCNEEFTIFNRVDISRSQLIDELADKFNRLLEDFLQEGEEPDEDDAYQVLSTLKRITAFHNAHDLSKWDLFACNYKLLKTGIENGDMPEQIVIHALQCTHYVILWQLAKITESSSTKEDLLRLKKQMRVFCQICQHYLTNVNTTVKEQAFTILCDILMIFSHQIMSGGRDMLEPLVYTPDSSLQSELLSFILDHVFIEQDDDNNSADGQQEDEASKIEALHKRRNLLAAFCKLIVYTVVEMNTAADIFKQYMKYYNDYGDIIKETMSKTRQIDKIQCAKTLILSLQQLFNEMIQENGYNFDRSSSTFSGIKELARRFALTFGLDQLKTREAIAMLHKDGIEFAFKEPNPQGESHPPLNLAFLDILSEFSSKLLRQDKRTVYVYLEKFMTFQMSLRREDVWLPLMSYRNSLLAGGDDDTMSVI
Sequence of SA2-SCC1 complex (SA2 80-1060 in complex with SCC1 281-420) (O60216 281-420, chain 2 of 2, further chain): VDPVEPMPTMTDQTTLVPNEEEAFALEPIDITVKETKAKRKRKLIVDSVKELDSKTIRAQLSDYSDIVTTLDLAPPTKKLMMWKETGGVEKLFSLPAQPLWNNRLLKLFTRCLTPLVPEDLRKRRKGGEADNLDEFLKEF

The Kd is the equilibrium constant for the complex coming apart. The low end stands for tighter binding, the high end for weaker binding. Regarding “Shugoshin (SGO1) peptide 331-341 (from UniProt Q5FBB7 331-341)”, the Kd is 13.5 µM and the dH was -10.7 kcal/mol.
